Laboratory results as given in FireProtDB (doi:10.1006/jmbi.1995.0323).

Conditions: Streptomyces albogriseolus, Thermal, DSC, reversible: yes, whole UniProt chain shown

B1: Subtilisin inhibitor wild type, P01006 (protein)
chain: MRNTGAGPSPSVSRPPPSAAPLSGAALAAPGDAPSALYAPSALVLTVGKGVSATTAAPERAVTLTCAPGPSGTHPAAGSACADLAAVGGDLNALTRGEDVMCPMVYDPVLLTVDGVWQGKRVSYERVFSNECEMNAHGSSVFAF
unfolding free energy (pH 3.2, 53.36 °C, glycine 25 mM): 5.55 kcal/mol | Tm (pH 3.2, glycine 25 mM): 53.4 °C | unfolding enthalpy (calorimetric) (pH 3.2, glycine 25 mM): 106 kcal/mol | unfolding free energy (pH 7, 82.21 °C, Sodium phosphate 25 mM): 6.03 kcal/mol | Tm (pH 7, Sodium phosphate 25 mM): 82.2 °C | unfolding enthalpy (calorimetric) (pH 7, Sodium phosphate 25 mM): 190 kcal/mol | unfolding free energy (pH 9.5, 80.7 °C, glycine 25 mM): 6.04 kcal/mol | Tm (pH 9.5, glycine 25 mM): 80.7 °C | unfolding enthalpy (calorimetric) (pH 9.5, glycine 25 mM): 186 kcal/mol
